Results taken from the supplement of paper PMC12042874.
± gives the uncertainty stated by the source.

Test: amyloid nucleation score (Sup35N fusion, yeast selection) (log enrichment); library NNK1; higher = more nucleation; inactive = no reads after selection
Procedure, shortened: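 For the nucleation score, DiMSum gave the log enrichment of output over input reads, centred on the mode score of non-aggregating sequences. Psi-negative yeast expressing Sup35N fused to peptides of 20 random codons were induced with 100 μM copper sulfate for 24 hours and grown 7 days at 30°C on medium lacking adenine and uracil. Input and output plasmid inserts were Illumina-sequenced, and sequences with under 100 input reads were excluded.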

In order of falling amyloid nucleation score:
1. FIASGPVHLRLYAKFNNFHL  8.643 ± 0.06
2. FIGAFRTTHSAGLLTDRMVL  7.851 ± 0.057
3. FNYYITFHCTCELECRGYCT  7.841 ± 0.05
4. FGMIFFLLTMALRDVCVRLR  7.24 ± 0.084
5. FHNVFCFSYFT  7.21 ± 0.078
6. FCCGSGNSMDMCWFLSIG  6.93 ± 0.079
7. FNVISVWSPWQW  6.3 ± 0.064
8. FDGGKVSILFAFISNP  6.252 ± 0.048
9. FMLCNFLVVIYSGSR  5.82 ± 0.063
10. FCISLFSHWFALW  5.72 ± 0.067
11. FFKGGVNGIFINNGSTFG  4.91 ± 0.067
12. EVEIFILNLLFIFPNQKARW  4.17 ± 0.12
13. FHTNMTVSYQTKLVLDRYWN  3.42 ± 0.14
14. FFAFYDVHPLHLGDTTLGGW  3.29 ± 0.14
15. FMPRSLHLTTWLQSNAFNNA  3.22 ± 0.068
16. ENIDVENQLVYLFKICFGSM  3.09 ± 0.12
17. FLHVPVLFSFTHCFMG  3.03 ± 0.13
18. EYLFLRRM  2.92 ± 0.089
19. FCQLVIFY  2.8 ± 0.18
20. ETPNAFHVHMSYVYRLRWSR  2.75 ± 0.17
21. ERNSITSILKRNRLSRGFAL  2.44 ± 0.48
22. FIIKYK  2.26 ± 0.19
23. FCKWCRFDDCTRGYIYFVRR  1.76 ± 0.37
24. ESSMLAMVGIQSTWCNVSYG  1.67 ± 0.2
25. FFIYPWFRMTFERRLDGELG  1.62 ± 0.27
26. EQENMCSVRQACIYH  1.57 ± 0.29
27. ERVSETRQSLTWNHNERIWL  1.55 ± 0.12
28. ETITKVVQQLSRLDKLSTYW  1.53 ± 0.26
29. EVMVSAGVTIACSPVVIRFR  1.47 ± 0.54
30. FQIRSRISIDCVMVNRDELS  1.41 ± 0.18
31. FIRGDANSLLHYLSDCVRE  1.37 ± 0.9
32. FDHSIVKKSQLRGFTVVLRL  1.22 ± 0.35
33. FKVKIVKCLGMFLLTIASLL  1.07 ± 0.39
34. FPESNKLMV  1.06 ± 0.65
35. FQHLNMVTAFSDSRGIPYML  1.05 ± 0.38
36. FIEQGHYNHTGFGSYGWRF  0.972 ± 0.29
37. FLLCVSHLELSY  0.968 ± 0.49
38. ERSYSNWAMG  0.958 ± 0.74
39. EQCTLVVSYGVWGHRSSCVG  0.93 ± 0.45
40. FFVFSRAHCAQSSLNKKYL  0.888 ± 0.3
41. EVHRFRVKKEGGDQ  0.869 ± 0.57
42. FEERFMFYTNIDNLLYPLSA  0.848 ± 0.42
43. ELSLKVFPTARIKRCMFEPM  0.838 ± 0.45
44. FGCNELNR  0.826 ± 0.5
45. EYVHLNQVNDAGGVDSGTLS  0.823 ± 0.28
46. ELSVNMSRDLSVTGLVQGRR  0.794 ± 0.36
47. FDITRGRSTSYLIERRRTWG  0.79 ± 0.82
48. ENRQIWCANGNVVGGTALGV  0.734 ± 0.69
49. FINNNVEDYFISL  0.712 ± 0.41
50. FAKLYLKSISVLLMHTDWVF  0.684 ± 0.62
51. FPSARYNNLT  0.655 ± 0.57
52. FKEMIAWPWLESSSGEFTIV  0.645 ± 0.62
53. FIGGLHMALYDYPVEGSALA  0.622 ± 0.76
54. ERYKY  0.601 ± 0.61
55. EVVKSITRKPNLVWRYLTLD  0.588 ± 0.44
56. FATRTLVYVYFRWCHDDLSH  0.584 ± 0.56
57. FMHAFRNQRLNLAGLGFRVA  0.573 ± 0.62
58. ELTCWSGDGGVGGILVNVWT  0.565 ± 0.47
59. FDGMYNDVRTRNVGARYF  0.552 ± 0.64
60. FPLGSFIDLQRDMGIN  0.53 ± 0.4
61. FNGRVRGYHSLDNVVHGRLY  0.522 ± 0.58
62. FERRCYRVSDHVAQVLHDPT  0.515 ± 0.97
63. FILCMLMVSAGLFEQEALRY  0.506 ± 0.24
64. ELLMERMRQLVFPPIIYRLN  0.44 ± 0.62
65. FNTCMSLFSNCFPNCWMHFK  0.428 ± 0.61
66. EPIYCFCDCNGSRWALYVSV  0.421 ± 0.54
67. FPDYQVLLQCYLN  0.418 ± 0.38
68. EPKVSSEQKVFDSCYT  0.417 ± 0.61
69. FMPMNVSNKTSELRYFCNGP  0.417 ± 0.74
70. FIATNLSLYGFVYWLLSTTT  0.414 ± 0.42
71. FESKYNTP  0.41 ± 0.47
72. FPENGLRSFSCPLVH  0.382 ± 0.66
73. FGNGHSRMHHRTLHTKPRAA  0.37 ± 1.1
74. FAHTLGA  0.333 ± 0.79
75. ESSYLMNKCSSAIQDWDWGR  0.321 ± 0.4
76. FAQWDNLSARSLKGDQRESA  0.302 ± 0.52
77. FCNRFRCSGSVRWLREVEYM  0.291 ± 0.46
78. FISHGRIVHGEDGAVLFVSG  0.277 ± 1.4
79. FHMAKRLYC  0.276 ± 0.46
80. FFALVYW  0.275 ± 0.29
81. FAWVDPGFLWDNLTPGTDRC  0.253 ± 0.43
82. ESSAIRNGEC  0.252 ± 0.52
83. ENDVSQPVRLTVVTRWSWYT  0.229 ± 0.53
84. EPAFL  0.229 ± 0.42
85. FKESLGFMFMHDMSWDGLLV  0.224 ± 0.7
86. FKSVGLTWALRGRINKTYLE  0.195 ± 0.21
87. FGMSCRVELDSDRARTTPWP  0.181 ± 0.64
88. FKRFWLR  0.166 ± 0.73
89. FFASCIRYDSRNCIGNLQLG  0.149 ± 0.64
90. FELLMDIDC  0.139 ± 0.83
91. FFLRESNVGLAQRATMELLD  0.13 ± 1.2
92. FGYNFRPHHCGCTRNLNSQM  0.115 ± 0.29
93. FGSDPISCGVWYMCVRGWYG  0.108 ± 0.3
94. ELGKKYSLYSLVLAST  0.107 ± 0.67
95. ETMGGLE  0.107 ± 0.9
96. FICVMTRSGQDSSGMLLREG  0.105 ± 0.2
97. EWGNRRVFYVVMDGSRCPAS  0.1 ± 0.16
98. ELAAMCSWAYSN  0.097 ± 0.41
99. FISNVWPYGESRFEESNPCL  0.094 ± 0.52
100. FLFLYNVGVVIRSGYMFLRS  0.088 ± 0.93
101. FLMLRAYESMARFYDVLWIG  0.088 ± 0.37
102. FMALLQLAGVIWVSLTVLTP  0.08 ± 0.62
103. FFWCRSRLTLAF  0.024 ± 0.35
104. FISAACEEPVTFMGNYGGYG  0.02 ± 0.53
105. EYVRRKFQPSCTVMRYCFAR  0.006 ± 0.77
106. FFWRHLESGMGFHKACSHGG  0.005 ± 1.7
107. FFKLKHGNTDRSYIYYVGCA  -0.01 ± 0.21
108. FNVLCPRRQNLSGVELD  -0.02 ± 0.45
109. FGLAGHFYNWNYIYTSSVWF  -0.021 ± 0.59
110. FAGFTGGVLYGVWRLLGSCR  -0.022 ± 0.59
111. ESPHYFTLTCV  -0.036 ± 0.74
112. ESIFFMTDTRSISLCST  -0.04 ± 0.27
113. FIFVIDTRVLRTLINCPTPS  -0.047 ± 0.36
114. ENYKVGACVYLPWPFHENTG  -0.096 ± 0.56
115. FAPMILRPVLSQMAWWKDIA  -0.108 ± 0.52
116. FMMSNWTNLNSWKTL  -0.122 ± 0.23
117. FKVPVYGWLWETTVVSADTS  -0.131 ± 0.37
118. FHFWEMFTQEAAPIWRWF  -0.139 ± 0.75
119. FMASTRRFPLSLMRRAHVYL  -0.182 ± 1.3
120. FIRWKLVYYDIMKCPSCSHH  -0.187 ± 0.61
121. EQHSPHPTIEKIALTCFTRC  -0.189 ± 0.4
122. FCNNATSTQGNVFSGLLWTL  -0.202 ± 0.27
123. FLFRFQKCLFNCFVLGLVSR  -0.206 ± 0.53
124. FENCHHYGTARFKDLPRSIV  -0.208 ± 0.66
125. FEYFCRRDRLTK  -0.209 ± 0.25
126. FFSYVYGVSACFLVTLLFGP  -0.229 ± 0.32
127. FDKYLRWFMKTLCNIDNWRW  -0.233 ± 0.24
128. FDSRENETTCAMSEDMTYVV  -0.238 ± 0.22
129. FPNALDYLYVV  -0.243 ± 0.22
130. EMAFSSINPRGHSIQGSASG  -0.282 ± 1.2
131. FMDTAMTSFGSLSW  -0.317 ± 0.55
132. EYDLRSGEG  -0.332 ± 0.46
133. EVGRSCWLGSL  -0.344 ± 0.68
134. ETYGCFRYWISSLPVVEVSF  -0.368 ± 0.35
135. FLHNSWTGGGGTYGICKMRV  -0.368 ± 0.65
136. FIWGLKLVDFSLPVSAL  -0.411 ± 0.51
137. FMFDNYIGRSGSGGCSGDGR  -0.417 ± 1.2
138. FEYRRNLKCVSFFWSVGINR  -0.436 ± 0.4
139. FNSGNQ  -0.442 ± 0.37
140. FLGLLLCCLVRAPLPFGMRA  -0.459 ± 0.56
141. EKLRIVHQRRGRVHFNSGAI  -0.482 ± 0.41
142. EPLISCILCKLEGWIPYHI  -0.493 ± 0.56
143. ELRCTTWSRSPSLQVALVDL  -0.499 ± 0.59
144. ELRLSLYLRKRRQYFRFVLK  -0.516 ± 1.7
145. FEQTIISLVSGYFQSSDYWS  -0.596 ± 0.78
146. FFTCNGWAGS  -0.614 ± 0.38
147. FGMKMGMMRVV  -0.688 ± 1.2
148. ELERWLDQKGTLQLEDQTLV  -0.724 ± 2.4
149. FCLNGRYECGSRMECEMVRE  -0.741 ± 0.39
150. FISSNDIYGGATGWDSSDVT  -0.743 ± 0.36
151. FCRFQDR  -0.785 ± 0.64
152. FGKFKRRRGMSKMNRMEITK  -0.841 ± 1.5
153. FLSSCSMFMGRPWFSCYRVR  -1.02 ± 2.4
154. FQSDYRRRMFVMSD  -1.03 ± 1.4
155. EMEVLSVPSVLLVIVVR  -1.04 ± 0.66
156. FFQTLDWV  -1.13 ± 2.4
157. FGGWVSLRSQKCMRPWRLGG  -1.22 ± 1.4
158. ENFLTNYFYSVVTVI  -1.51 ± 1.2
159. ESKEPFLCIQDITVSSFLPF  -1.69 ± 2.4
160. FKTYYLATLDTNS  -1.73 ± 2.4
161. EKNCRADATV  -1.96 ± 1.8
162. ESGYVLESSVQVENKFIFTT  -2.27 ± 2.4

With EWSFSYCGGVAFLSIEIEFL the amyloid nucleation score was “inactive”.
With FDVFMRYG the amyloid nucleation score was “inactive”.
In the case of FESRRVKNGID, the amyloid nucleation score is reported as “inactive”.
For FFYLIISGMVMLSNPLSRVS, the amyloid nucleation score was “inactive”.
With FIELMRGDDLMHRGTLYVLR the amyloid nucleation score was “inactive”.
In the case of FIRSVKRGARWSGGNFFIEG, the amyloid nucleation score is reported as “inactive”.
In the case of FLYWSHSYFLITWFRCVLEI, the amyloid nucleation score is reported as “inactive”.
With FPTFLPQWTGKCFALRCGRW the amyloid nucleation score was “inactive”.
